Measured values taken from the DeepSol protein solubility set.

Assay: soluble on expression in E. coli; label from the status in PepcDB or PDB records

## ASMTGGQQMGRGSGPMLIEFNIPVDLKLVEQQNPKVKLGGRYTPMDGASVHKMALLVPFRDRFEELLQFVPHMTAFLKRQGVAHHIFVLNQVDRFRFNRASLINVGFQFASDVYDYIAMHDVDLLPLNDNLLYEYPSSLGPLHIAGPKLHPKYHYDNFVGGILLVRREHFKQMNGMSNQYWGWGLEDDEFFVRIRDAGLQVTRPQNIKTGTNDTFSHIHNRYHRKRDTQKCFNQKEMTRKRDHKTGLDNVKYKILKVHEMLIDQVPVTILNILLDCDVNKTPWCDCS
  soluble on expression in E. coli: soluble

## MPVVIIVEHPRFISSAGPAVKGDTGQIMKYEKTKEFPHTKKFKAICYGAMMHPKRACKLTEQPTMTKQKRKNTFLTAYYRAKEICMIYSHIFINKLPKQKLTFKQFYVKK
  soluble on expression in E. coli: not soluble

## EALSSKVQQLERSIGLKDLAMADLEQKVLEMEASTYDGVFIWKISDFPRKRQEAVAGRIPAIFSPAFYTSRYGYKMCLRIYLNGDGTGRGTHLSLFFVVMKGPNDALLRWPFNQKVTLMLLDQNNREHVIDAFRPDVTSSSFQRPVNDMNIASGCPLFCPVSKMEAKNSYVRDDAIFIKAIVDLTGL
  soluble on expression in E. coli: soluble

## AIASARVRSRSRGRGDGQEAPDVVAFVAPGESQQEEPPTDNQDIEPGQEREGTPPIEERKVEGDCQEMDLEKTRSERGDGSDVKEKTPPNPKHAKTKEAGDGQP
  soluble on expression in E. coli: soluble

## MDVLSLLRVFGRRRRGLRDLEVSEPEFGDRPEYLEEYVRRFTSETGREEPELVEKIPSSMKNAREFNVIYPVGFGIFIHAYNDPLSESGYNKYVVVEPPRPPEDLVRLIDYKIALVLSEEDAPRSSEEKKRILLAALDKVVAVTSSERIAGGNGGNGSWQYAVKRGRIVIPERYYNYLKYHFIREKVGVGPLEPFLRDPYLEDISCNGVGPVYVVHKMFRSLESSVRFETEGELDDFILKLGEKIGKPISHARPVVDATLPDGSRINIVFGSDVSLKGSNFTIRKVSKIPISVTQLIKWGTFDARIAAYMWMMLEEGMSVFICGETASGKTTSLNAISVFIRPDAKIVTIEDTAEVVLPHPNWTRELTRNTGKPETSVTMFDLLRAALRQRPNYIIVGEIRGAEGNIAFQAMQTGHPVMATFHAANLSRLLQRLTNHPINVPKTNIDSLNIAWFQSAVHVKGFPARRVLEIDEIIGYDPSSGAIAAVPSFTWDPVRDKFIFSGRGASYLLEEKIATMKGIPRRELSIIYEELELRRRFLQTLVDKNILDYFDVYKAIVRAYNIGVEEALKRLERDELLS
  soluble on expression in E. coli: soluble

## SLHELSIVESLIELCEENALNNKAYNVQEIYVKIGRLSGIEVDLFKRCFETFKENSNICKNAKLFIELAPLEILCLKCDQTSILEENVFKCPKCQSIEYKIIQGEDLHLMRLVMK
  soluble on expression in E. coli: soluble

## MGHHHHHHSHMEFIVDSVDKTMHIGRQLGSLVNKGDILCLTGDLGTGKTHISKGIAEGLGIDEHITSPTFNIVNEYHSGRLTLYHFDVYRVNDPDEIEAIGFDEYIFGDGVSLIEWANYIEELIPEEYIHIKIEKLPDMGENFRKITINGYGDRYNYIKEIKE
  soluble on expression in E. coli: not soluble

## MGSDKIHHHHHHMGFIEVQQQFMDYIRDPSLPLPEGIEPRRMKIYRELFFNNIAGFVSSAFPVLKSVYEDDQWQALVQQFFVSHDCKTPIFVEIAGEFLAFLQHEYQMTEDDPVFMLQLAHYEWLELCVAVAPDTPAAQSINTIELNLHRLCLAACAKVAQYAFDVQHISVDYQPIEPTAQANFFCVFRGADDEVAFLQLTPLSAQVLAYIEQMTHSQQGVTVDAIISWLSEHYPQMPNDTLLSGCLPLLQQLAQKGIVISSIES
  soluble on expression in E. coli: not soluble

## MGSDKIHHHHHHMSQTLLALYGLKWNPFSADLPIAAVSVPPKVEDFCWRIEHALVREGGFALIQGDPGTGKSVILRLLAERLSRLPDLTVGAIHHPQSNLADFYRELGDIFAVSLKPSNRWGGFKALRERWLAHLEATRRRPVLLIDEAQEMNAPVLCELRLLSSARFDSQSLLSVLLAGDARLTEKLRREELVPLGSRIRVRLHTESASRNELLGCLEHLMTEAGNAGLMTAGLCQTLCDHAMGNYRVLTQMAAELLAAATQRQLDQLDEKLFLELYGPAQQPARRKAAH
  soluble on expression in E. coli: not soluble

## GPLGSMKPINIQDQFLNQIRKENTYVTVFLLNGFQLRGQVKGFDNFTVLLESEGKQQLIYKHAISTFAPQKNVQLELE
  soluble on expression in E. coli: soluble

## MNSNSLSRFTSIVRTTSIRGFHDRSSVPRVVDDREKSSAKYNDAGYTFRYHQQGVDPLPRIPDCKVPVARPAYKVRDQWSDEAARFGQNDYIDLLGDGSVHPAQLQYHTPTWLRGFPGQHKANELIKLIHYRNLYDAKLKQNSPKRWHELRKRIKYLMMQHNYNKQDEIGRERNLGLWEEEPDYTYKDKSRRSFKDEIH
  soluble on expression in E. coli: not soluble

## MAHHHHHHMRERKPIRKMKRSRVSDQIIRVEEPDAEEGEASPAKATPVPHFSDRRICINVGGEYITTLASTLCSEPSKFSEWVENNFQGLPRDSMGNPFIDRDPENFRQIISYLRGYELPTATEKIVFLAEDAEYYHIDRLLALINPPAEWRFVSGPGVSSSRKEFSTENILATCGNEPLPQVGKSVFLLRIDKCELVSIGLVGTESPDHDEPLERQTNAIAYRSTGELIRSLNSSSTFFSGNGYKGRDTVMVQVLFKPEGAAQIEFFCNDVKTHETEWLSPVPPLRFAVSLHGVSAVVIERCVAGVKDEDM
  soluble on expression in E. coli: not soluble

## MVKSFLMLGQSNMAGRGFINEVPMIYNERIQMLRNGRWQMMTEPINYDRPVSGISLAGSFADAWSQKNQEDIIGLIPCAEGGSSIDEWALDGVLFRHALTEAKFAMESSELTGILWHQGESDSLNGNYKVYYKKLLLIIEALRKELNVPDIPIIIGGLGDFLGKERFGKGCTEYNFINKELQKFAFEQDNCYFVTASGLTCNPDGIHIDAISQRKFGLRYFEAFFNRKHVLEPLINENELLNLNYARTHTKAEKIYIKSMDFALGKISYDEFTSELMKINNDLEHHHHHH
  soluble on expression in E. coli: soluble

## MGSDKIHHHHHHMKPIQLPLSVRLRDDATFANYYPGANAAALGYVERLCEAEAGWAESLIYLWGHDGVGRSHLLQAACLRFEQFEERTIYLPMADLVQYGPEIFDDLEQCELVCIDDLDVLVGKREWEEGLFHLFNRLRDTGRRLLLAASKSPRELQVKLPDLKSRLTMALIFQLHGLSDEDKLRALQLRASRRGLHLTDEVGRFILNRGSRSMNSLFDLLEQLDRASLQAQRKLTIPFLKETLGW
  soluble on expression in E. coli: not soluble

## MAHHHHHHMSDEAARQQRSAELADQVRTFFATYAGSAEERLDVVRGYEKCRGDFKKMVREYLLFDNGVEAEVQRLHRLVSTLIELGNLSPTPAWKSTSTPEALLRLEKAMHRERQEAENVLKDMAGSGTGAAGAADGDLSSLQVMIRQRQQSSYESMLNHLESKYVTKKSNARESSSAHVRPHRPLARTNVLPKSTGKPLITGKSGTCAEEASASGIRPGNVGRIPLSTAVIFCFLCYCGRYRSWLNACDLSPHLLTQPPKFPAWLRGQPITVL
  soluble on expression in E. coli: soluble

## MAHHHHHHMKLYSLAIVKPYPSGVEKQPVICSQAIDVSSFGFFQRNSAREFIVFLTRTVSNRVAKGVKTQITENGNVVFAHATFDGLVALAISDVEYNSRVAFTLLGDLVQQFQTTFRGKYDLVDGKEDNFLSWPHLTETLEKYQKPEEQDKILKIKRDIEDTKVIMYNAIDQIIERGQKIDDLVAQSEDLGMASKTFYKQAKKTNSGCCTVM
  soluble on expression in E. coli: soluble

## MGSDKIHHHHHHMEKENIMTVDIEDFKKSQHILDYIDDDFAIVNSLDGIPYSNDTVRLNCFLIAVCAEGCIQLDINYRTYQLQAGDLLLGLPNTLISRTMLSPKYKIRLAGFSTRFLQRIIKMEKKTWNTAAHIHNNPVKSISEGGDDPVFRFYRDLIVAKINDEPHYYHREVMQHLFSALFCEMLGQLHKEIDAPDKGDSPKEGIKQADYTLRKFVELLSKDKGMHRSVSYYADALCYTPKHFSKVIKQACGRTPLDLINETTIEHIKYRLKRSDKSVKEIAEEFNFPNQSFFGKYVKMHLGTSPANYRNREDE
  soluble on expression in E. coli: not soluble
